Measured values: article PMC9201380 (2022)

Biological target: SARS-CoV-2 S receptor-binding domain (residues 330-531), Avi-tagged and biotinylated (SARS-CoV-2, UniProt P0DTC2 330-531)
Test: BLI

B1: DL28 (monovalent nanobody) (VHH)
VHH: QVQLQESGGGLVQAGGSLRLSCAASGSDFSSSTMGWYRQAPGKQREFVAISSEGSTSYAGSVKGRFTISRDNAKNTVYLQMNSLEPEDTAVYYCNVVDRWYDYWGQGTQVTVSA
  koff: 0.000743 s⁻¹
